From patent publication US11649460B2, “DNA aptamers, method for inhibiting human galectin-1 and method of treating a mammal in need thereof” (priority 2020, dated 2023)

What was measured:
[1] = target: T1, hGal1-induced hemagglutination of red blood cells (Homo sapiens, UniProt P09382); assay: Hemagglutination inhibition assay, native hGal1; format: cell-based
T1 construct: 42; made in house; host or cells: E. coli strain M-15
Summary of the method: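 hGal1 (5 μM) was mixed with aptamer at 0-40 μM in PBS pH 7.4, then 3% type B+ human red blood cells were added and the mixture incubated 2 h at room temperature. Agglutination area was measured from plate photographs and expressed as relative agglutination.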

[2] = test system: DU-145 human prostate carcinoma cell line; assay: SRB cell proliferation (cytotoxicity) assay, DU-145
From the text: (§1) The XLSTAT software was used to determine the IC50, TGI and LC50 values using the four-parameter logistic curve equation.

alkylated galectin-1 = assay: Thermofluor thermal shift assay (TSA), alkylated galectin-1; format: binding, human; conditions: 5 μM protein
Sequence of alkylated galectin-1 (P09382 2-135): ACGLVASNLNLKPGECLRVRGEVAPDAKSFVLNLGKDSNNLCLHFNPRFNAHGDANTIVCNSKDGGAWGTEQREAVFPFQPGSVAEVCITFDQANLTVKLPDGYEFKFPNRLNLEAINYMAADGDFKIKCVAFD
Method: In an attempt to screen among the selected aptamers that better interact with hGal1, differential scanning fluorimetry (Termofluor) was used to characterize their binding to its target. Among all the selected aptamers, SEQ ID NO.: 4 seemed to have a more intense effect on hGal1 thermoshift and so was chosen for further analysis. The selected aptamer had its interaction evaluated with native and alkylated galectin-1. […] The respective thermal displacements were evaluated as a function of an increasing concentration of SEQ ID NO.: 4 (FIG. 1).
Thermofluor experiments were performed on an Mx3005 RT-PCR (Agilent Technologies) using the SYPRO® Orange dye (492/610 nm) (Invitrogen) as fluorescent probe. The purified (native and alkylated) protein samples were incubated for 30 min with increasing concentration of the molecules of interest, centrifuged, and submitted to the thermal denaturation assay, totalizing four distinct experiments. In a 96-well plate (Agilent Technologies) 20 μl of the reaction containing 5 μM of each protein in buffer PBS 1× and 5× SYPRO® Orange were heated from 25° C. to 95° C. at a rate of 1° C./min. The experimental result was processed as in the protocol previously described and the melting temperature was obtained using GraphPad Prism software (www.graphpad.com).

[3] = test system: NHF human foreskin skin fibroblasts; assay: in vitro
From the text: as §1

[4] = test system: A-375 human malignant melanoma; assay: SRB cell proliferation (cytotoxicity) assay, A-375
From the text: as §1

T1 sequence (P09382 2-135): as above

B1: CTGACACAGCAGGTTGGTGCCAACTAACACCATAAGAATACCCCGCTCCAAATAAGCCCACACGTAAACCCGAGTCGAGCAATCTCGAAAT (nucleic acid)
DNA: CTGACACAGCAGGTTGGTGCCAACTAACACCATAAGAATACCCCGCTCCAAATAAGCCCACACGTAAACCCGAGTCGAGCAATCTCGAAAT
modifications: chemistry not given here
notes: DNA aptamer that recognizes human galectin-1
Q: For B1, which “inhibition effect over RBC agglutination” value ([1]; 10 μM aptamer, 5 μM hGal1) is on record?
A: The value was “approximately 75%”.

Q: And the “inhibitory effect on galectin-induced hemagglutination” value ([1]; native Gal1 5 μM)?
A: The value was “better effect”.

Q: What about the “concentration from which hemagglutination was inhibited” value ([1]; native Gal1 5 μM, listed as aptamer 4) of the same molecule?
A: The value was 10 µM.

Q: What about the “Relative viability (%) of test items” value ([2]; 0.781 µM) of the same molecule?
A: Its value is 109.3%.

Q: What about the “Relative viability (%) of test items” value ([2]; 1.562 µM) of the same molecule?
A: Its value is 100.6%.

Q: And the “Relative viability (%) of test items” value ([2]; 3.125 µM)?
A: The value was 104.7%.

Q: What about the “Relative viability (%) of test items” value ([2]; 6.25 µM) of the same molecule?
A: Its value is 109.6%.

Q: What about the “Relative viability (%) of test items” value ([2]; 12.5 µM) of the same molecule?
A: Its value is 104.3%.

Q: What about the “Relative viability (%) of test items” value ([2]; 25 µM) of the same molecule?
A: Its value is 88.5%.

Q: What about the “Relative viability (%) of test items” value ([2]; 50 µM) of the same molecule?
A: The value was 68.4%.

Q: What about the “Relative viability (%) of test items” value ([2]; 100 µM) of the same molecule?
A: Its value is 36.0%.

Q: And the IC50 ([2]; read-out: IC50: Concentration to inhibit 50% of cell growth, DU-145)?
A: Its IC50 is 72.6 µM.

Q: And the “temperature variation (Tm) of alkylated galectin-1” value (alkylated galectin-1)?
A: The value was “not significant”.

Q: And the “Relative viability (%) of test items” value ([3]; 0.781 µM)?
A: Its value is 95.3%.

Q: What about the “Relative viability (%) of test items” value ([3]; 1.562 µM) of the same molecule?
A: The value was 94.2%.

Q: What about the “Relative viability (%) of test items” value ([3]; 3.125 µM) of the same molecule?
A: Its value is 98.4%.

Q: And the “Relative viability (%) of test items” value ([3]; 6.25 µM)?
A: Its value is 100.7%.

Q: And the “Relative viability (%) of test items” value ([3]; 12.5 µM)?
A: The value was 106.6%.

Q: What about the “Relative viability (%) of test items” value ([3]; 25 µM) of the same molecule?
A: Its value is 73.4%.

Q: And the “Relative viability (%) of test items” value ([3]; 50 µM)?
A: Its value is 19.8%.

Q: And the “Relative viability (%) of test items” value ([3]; 100 µM)?
A: The value was −25.4%.

Q: And the “TGI: Concentration for total inhibition of cell growth” value ([3]; NHF)?
A: Its value is 63.101 µM.

Q: And the IC50 ([3]; read-out: IC50: Concentration to inhibit 50% of cell growth, NHF)?
A: The IC50 was 35.6 µM.

Q: What about the “Relative cell viability (%) of test items” value (“Relative cell viability (%)” below) ([4]; 0.781 µM) of the same molecule?
A: Its value is 109.5%.

Q: And the “Relative cell viability (%)” value ([4]; 1.562 µM)?
A: The value was 100.6%.

Q: And the “Relative cell viability (%)” value ([4]; 3.125 µM)?
A: The value was 103.0%.

Q: What about the “Relative cell viability (%)” value ([4]; 6.25 µM) of the same molecule?
A: Its value is 97.3%.

Q: What about the “Relative cell viability (%)” value ([4]; 12.5 µM) of the same molecule?
A: Its value is 85.8%.

Q: What about the “Relative cell viability (%)” value ([4]; 25 µM) of the same molecule?
A: The value was 35.7%.

Q: And the “Relative cell viability (%)” value ([4]; 50 µM)?
A: Its value is −69.0%.

Q: What about the “Relative cell viability (%)” value ([4]; 100 µM) of the same molecule?
A: Its value is −72.3%.

Q: What about the “TGI: Concentration for total inhibition of cell growth” value ([4]; A-375) of the same molecule?
A: The value was 29.656 µM.

Q: And the IC50 ([4]; read-out: IC50: Concentration to inhibit 50% of cell growth, A-375)?
A: The IC50 was 22.7 µM.

Q: What about the CC50 ([4]; read-out: LC50: Concentration for 50% cell death, A-375) of the same molecule?
A: The CC50 was 41.1 µM.
